In the supplement of paper PMC6755084:

B1: F1*; the commonest letter at each place (parent)
chain: GAGACCGCAACTGAAAAGTTGTTATCACTTGTCGTAAGACACTTTGGATGGGTTGAAGTTCTGCACGTAGAAGCAAAAGGC

Variants of: B1
Experiment: fraction ligated after 30 min (ligated reads / total reads); higher = more ligase activity
Details: with F1*sub RNA substrate (template-directed ligation), 42 °C
Method in brief: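 Ribozyme variants were transcribed with T7 from PCR-amplified oligo-pool templates and gel-purified. Ligated and unligated bands, separated on gel, were reverse transcribed with barcoded primers and sequenced on a MiSeq, with core bases filtered at quality ≥20. Fraction ligated per variant was computed as ligated reads divided by total reads.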

Variant | fraction ligated
GAGACCGCAACTGAAAAGTTGTTATCACTTGTCGTAAGTCACTTGGGATGGGTTGAAGTTCTGCACGTAGAAGCAAAAGGC [A39T T45G] | 0.1
GAGACCGCAACTGAAAAGTTGTTATCACTTGTCGTAAGTCACTTAGGATGGGTTGAAGTTCTGCACGTAGAAGCAAAAGGC [A39T T45A] | 0.744
GAGACCGCAACTGAAAAGTTGTTATCACTTGTCGTAAGTCACTTCGGATGGGTTGAAGTTCTGCACGTAGAAGCAAAAGGC [A39T T45C] | 0.676
GAGACCGCAACTGAAAAGTTGTTATCACTTGTCGTAAGAAAGTTTGGATGGGTTGAAGTTCTGCACGTAGAAGCAAAAGGC [C40A C42G] | 0.803
GAGACCGCAACTGAAAAGTTGTTATCACTTGTCGTAAGAAATTTTGGATGGGTTGAAGTTCTGCACGTAGAAGCAAAAGGC [C40A C42T] | 0.818
GAGACCGCAACTGAAAAGTTGTTATCACTTGTCGTAAGAAAATTTGGATGGGTTGAAGTTCTGCACGTAGAAGCAAAAGGC [C40A C42A] | 0.821
GAGACCGCAACTGAAAAGTTGTTATCACTTGTCGTAAGTCACTTTGGAGGGGTTGAAGTTCTGCACGTAGAAGCAAAAGGC [A39T T49G] | 0.769
GAGACCGCAACTGAAAAGTTGTTATCACTTGTCGTAAGTCACTTTGGACGGGTTGAAGTTCTGCACGTAGAAGCAAAAGGC [A39T T49C] | 0.0992
GAGACCGCAACTGAAAAGTTGTTATCACTTGTCGTAAGTCACTTTGGAAGGGTTGAAGTTCTGCACGTAGAAGCAAAAGGC [A39T T49A] | 0.717
GAGACCGCAACTGAAAAGTTGTTATCACTTGTCGTAAGAAACTTTGGTTGGGTTGAAGTTCTGCACGTAGAAGCAAAAGGC [C40A A48T] | 0.0719
GAGACCGCAACTGAAAAGTTGTTATCACTTGTCGTAAGAAACTTTGGCTGGGTTGAAGTTCTGCACGTAGAAGCAAAAGGC [C40A A48C] | 0.658
GAGACCGCAACTGAAAAGTTGTTATCACTTGTCGTAAGAAACTTTGGGTGGGTTGAAGTTCTGCACGTAGAAGCAAAAGGC [C40A A48G] | 0.739
GAGACCGCAACTGAAAAGTTGTTATCACTTGTCGTAAGTCACTTTGGATTGGTTGAAGTTCTGCACGTAGAAGCAAAAGGC [A39T G50T] | 0.413
GAGACCGCAACTGAAAAGTTGTTATCACTTGTCGTAAGTCACTTTGGATCGGTTGAAGTTCTGCACGTAGAAGCAAAAGGC [A39T G50C] | 0.0837
GAGACCGCAACTGAAAAGTTGTTATCACTTGTCGTAAGTCACTTTGGATAGGTTGAAGTTCTGCACGTAGAAGCAAAAGGC [A39T G50A] | 0.239
GAGACCGCAACTGAAAAGTTGTTATCACTTGTCGTAAGAAACTTTGGATGGGTTGGAGTTCTGCACGTAGAAGCAAAAGGC [C40A A56G] | 0.785
GAGACCGCAACTGAAAAGTTGTTATCACTTGTCGTAAGAAACTTTGGATGGGTTGTAGTTCTGCACGTAGAAGCAAAAGGC [C40A A56T] | 0.812

Variant | fraction ligated
GAGACCGCAACTGAAAAGTTGTTATCACTTGTCGTAAGAAACTTTGGATGGGTTGCAGTTCTGCACGTAGAAGCAAAAGGC [C40A A56C] | 0.711
GAGACCGCAACTGAAAAGTTGTTATCACTTGTCGTAAGTCACTGTGGATGGGTTGAAGTTCTGCACGTAGAAGCAAAAGGC [A39T T44G] | 0.827
GAGACCGCAACTGAAAAGTTGTTATCACTTGTCGTAAGTCACTCTGGATGGGTTGAAGTTCTGCACGTAGAAGCAAAAGGC [A39T T44C] | 0.821
GAGACCGCAACTGAAAAGTTGTTATCACTTGTCGTAAGTCACTATGGATGGGTTGAAGTTCTGCACGTAGAAGCAAAAGGC [A39T T44A] | 0.79
GAGACCGCAACTGAAAAGTTGTTATCACTTGTCGTAAGAAACTTTGGATGGGTTGAGGTTCTGCACGTAGAAGCAAAAGGC [C40A A57G] | 0.843
GAGACCGCAACTGAAAAGTTGTTATCACTTGTCGTAAGAAACTTTGGATGGGTTGACGTTCTGCACGTAGAAGCAAAAGGC [C40A A57C] | 0.812
GAGACCGCAACTGAAAAGTTGTTATCACTTGTCGTAAGAAACTTTGGATGGGTTGATGTTCTGCACGTAGAAGCAAAAGGC [C40A A57T] | 0.792
GAGACCGCAACTGAAAAGTTGTTATCACTTGTCGTAAGAAACTTTGGATGGGTTGAAGTTCTGCACGTAGAAGCAAAAGGC [C40A] | 0.833
GAGACCGCAACTGAAAAGTTGTTATCACTTGTCGTAAGAAGCTTTGGATGGGTTGAAGTTCTGCACGTAGAAGCAAAAGGC [C40A A41G] | 0.766
GAGACCGCAACTGAAAAGTTGTTATCACTTGTCGTAAGAATCTTTGGATGGGTTGAAGTTCTGCACGTAGAAGCAAAAGGC [C40A A41T] | 0.81
GAGACCGCAACTGAAAAGTTGTTATCACTTGTCGTAAGAACCTTTGGATGGGTTGAAGTTCTGCACGTAGAAGCAAAAGGC [C40A A41C] | 0.811
GAGACCGCAACTGAAAAGTTGTTATCACTTGTCGTAAGTCACGTTGGATGGGTTGAAGTTCTGCACGTAGAAGCAAAAGGC [A39T T43G] | 0.772
GAGACCGCAACTGAAAAGTTGTTATCACTTGTCGTAAGTCACATTGGATGGGTTGAAGTTCTGCACGTAGAAGCAAAAGGC [A39T T43A] | 0.829
GAGACCGCAACTGAAAAGTTGTTATCACTTGTCGTAAGTCACCTTGGATGGGTTGAAGTTCTGCACGTAGAAGCAAAAGGC [A39T T43C] | 0.795
GAGACCGCAACTGAAAAGTTGTTATCACTTGTCGTAAGTCACTTTGGATGGGTTTAAGTTCTGCACGTAGAAGCAAAAGGC [A39T G55T] | 0.804
GAGACCGCAACTGAAAAGTTGTTATCACTTGTCGTAAGTCACTTTGGATGGGTTAAAGTTCTGCACGTAGAAGCAAAAGGC [A39T G55A] | 0.786
GAGACCGCAACTGAAAAGTTGTTATCACTTGTCGTAAGTCACTTTGGATGGGTTCAAGTTCTGCACGTAGAAGCAAAAGGC [A39T G55C] | 0.738
